Test results: US20020004209A1, “Use of SLIM3 for binding to molecules” (Schering Aktiengesellschaft Patents, priority 1999, published 2002)

Key:
[1] = target: T1, progesterone receptor alpha (Homo sapiens, UniProt P06401); assay: GST-protein-interaction test; assay type: binding; details: in vitro
T1 construct: made in house; host or cells: in vitro translation, 35S-methionine labelled
T1 sequence (P06401 1-769 isoform P06401-2): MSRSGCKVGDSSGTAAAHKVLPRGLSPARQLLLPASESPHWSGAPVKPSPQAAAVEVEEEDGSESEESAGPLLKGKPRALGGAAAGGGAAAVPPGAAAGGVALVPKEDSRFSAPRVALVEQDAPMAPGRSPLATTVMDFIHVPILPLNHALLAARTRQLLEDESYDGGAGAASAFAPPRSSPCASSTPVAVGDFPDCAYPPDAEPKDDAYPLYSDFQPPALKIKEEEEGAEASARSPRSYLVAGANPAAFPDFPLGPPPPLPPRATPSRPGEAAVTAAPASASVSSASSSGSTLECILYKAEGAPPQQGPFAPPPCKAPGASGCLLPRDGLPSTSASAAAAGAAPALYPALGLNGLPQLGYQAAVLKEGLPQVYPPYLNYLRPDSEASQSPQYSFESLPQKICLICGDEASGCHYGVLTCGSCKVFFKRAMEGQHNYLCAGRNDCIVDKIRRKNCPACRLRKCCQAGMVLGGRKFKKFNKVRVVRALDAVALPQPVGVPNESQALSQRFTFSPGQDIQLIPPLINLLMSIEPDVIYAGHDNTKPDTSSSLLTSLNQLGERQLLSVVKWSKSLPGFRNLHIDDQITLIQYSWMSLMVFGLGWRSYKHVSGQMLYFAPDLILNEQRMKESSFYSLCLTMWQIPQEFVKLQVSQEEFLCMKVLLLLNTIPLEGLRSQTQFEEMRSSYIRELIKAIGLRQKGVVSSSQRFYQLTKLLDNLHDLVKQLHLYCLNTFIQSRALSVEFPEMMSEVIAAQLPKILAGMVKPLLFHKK
Experimental: To measure the interaction between SLIM3 and the nuclear receptors in vitro, the GST-Slim3 fusion protein was immobilized by means of glutathione-sepharose and incubated with several in vitro-translated ^35S-methionine-labeled nuclear receptors. The complete human androgen receptor binds to GST-Slim3. This in vitro interaction is not ligand-dependent under standard conditions. The complete human androgen receptor binds specifically to GST-Slim3, but not to the GST protein alone. To safeguard the specificity between the human androgen receptor and SLIM3, another GST-protein-interaction test was carried out (GST-protein-interaction assay). This test is described in E. PFITZNER et al. (1995) Functional Antagonism Between the Retinoid Acid Receptor and the Viral Transactivator BZLF1 is Mediated by Protein-Protein Interactions. Proc Natl Acad Sci USA Vol. 92, pp. 12265-12269.

[2] = target: T2, co-activator RIP140 (Homo sapiens, UniProt P48552); assay: GST-protein-interaction test; assay type: binding; details: in vitro
T2 sequence (P48552 1-1158): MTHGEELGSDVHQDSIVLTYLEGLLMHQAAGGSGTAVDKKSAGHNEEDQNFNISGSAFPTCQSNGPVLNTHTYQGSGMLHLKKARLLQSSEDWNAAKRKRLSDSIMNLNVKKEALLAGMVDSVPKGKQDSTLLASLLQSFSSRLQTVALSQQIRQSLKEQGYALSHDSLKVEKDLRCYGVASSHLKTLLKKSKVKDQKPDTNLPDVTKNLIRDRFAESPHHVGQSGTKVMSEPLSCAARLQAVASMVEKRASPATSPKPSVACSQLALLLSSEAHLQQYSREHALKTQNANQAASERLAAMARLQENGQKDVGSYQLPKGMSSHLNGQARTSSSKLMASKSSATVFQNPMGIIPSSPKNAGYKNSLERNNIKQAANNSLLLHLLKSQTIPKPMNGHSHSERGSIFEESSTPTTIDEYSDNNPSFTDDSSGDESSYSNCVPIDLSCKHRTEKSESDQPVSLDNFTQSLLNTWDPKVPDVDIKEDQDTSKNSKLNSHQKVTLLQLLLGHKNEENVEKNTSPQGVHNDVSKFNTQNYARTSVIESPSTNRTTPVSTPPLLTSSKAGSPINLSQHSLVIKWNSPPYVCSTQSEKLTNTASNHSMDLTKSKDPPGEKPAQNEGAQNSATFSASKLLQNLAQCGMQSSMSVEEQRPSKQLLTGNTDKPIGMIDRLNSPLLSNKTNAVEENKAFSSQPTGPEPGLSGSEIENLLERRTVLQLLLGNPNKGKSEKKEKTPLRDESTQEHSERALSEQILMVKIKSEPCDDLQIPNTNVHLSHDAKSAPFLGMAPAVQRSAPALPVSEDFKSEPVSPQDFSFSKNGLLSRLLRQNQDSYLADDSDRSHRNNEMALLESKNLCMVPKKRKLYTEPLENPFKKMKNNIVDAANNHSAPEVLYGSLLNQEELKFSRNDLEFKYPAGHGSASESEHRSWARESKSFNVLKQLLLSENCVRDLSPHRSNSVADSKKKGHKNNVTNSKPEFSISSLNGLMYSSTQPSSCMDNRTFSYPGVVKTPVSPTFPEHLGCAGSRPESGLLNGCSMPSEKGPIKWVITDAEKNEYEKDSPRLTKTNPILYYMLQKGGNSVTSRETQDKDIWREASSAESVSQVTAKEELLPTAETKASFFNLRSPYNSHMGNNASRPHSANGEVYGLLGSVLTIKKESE
T2 sequence (Q14192 1-279 partner): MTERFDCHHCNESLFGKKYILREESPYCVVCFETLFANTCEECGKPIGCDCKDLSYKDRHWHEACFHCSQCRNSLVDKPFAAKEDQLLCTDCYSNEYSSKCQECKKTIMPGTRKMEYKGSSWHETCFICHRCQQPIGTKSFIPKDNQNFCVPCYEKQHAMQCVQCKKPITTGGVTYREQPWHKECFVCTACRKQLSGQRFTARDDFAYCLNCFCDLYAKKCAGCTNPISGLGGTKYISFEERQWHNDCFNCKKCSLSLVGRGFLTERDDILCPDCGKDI

## SLIM3: LIM-domain protein of 279 amino acids, co-activator for nuclear receptors AR and ERβ
[1]
  bond to SLIM3: no bond
[2]
  interaction with co-activator: interacts
